{"source": "paper doi:10.1101/2025.07.24.665437", "about": "“Consensus DNA Inhibits p53 Aggregation but Fails to Rescue Mutants”", "binders": {"B1": {"name": "p21-RE (dsDNA)", "DNA 1": "CGCGAACATGTCCCAACATGTTGCGC", "DNA 2": "GCGCAACATGTTGGGACATGTTCGCG"}}, "target": "p53 DBD WT (UniProt P04637 94-312)", "sequence (P04637 94-312)": "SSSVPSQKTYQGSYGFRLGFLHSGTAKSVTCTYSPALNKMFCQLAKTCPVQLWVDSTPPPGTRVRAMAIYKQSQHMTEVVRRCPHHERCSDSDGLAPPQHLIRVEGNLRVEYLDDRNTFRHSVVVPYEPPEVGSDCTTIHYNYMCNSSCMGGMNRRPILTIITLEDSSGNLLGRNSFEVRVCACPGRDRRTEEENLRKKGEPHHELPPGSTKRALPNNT", "test": "EMSA; protein:DNA 1:1, 9:1, 454:1; binding kept 24 h to 1 month; EMSA on TBE gels; protein in 1X PBS, 1 mM TCEP, pH 7.4; DNA stocks in 50 mM Tris-HCl, 137 mM NaCl, pH 8.1; samples held at 4 C (0 hr) or incubated (37 C, 24 h for aggregation); full EMSA details not in material", "conditions": "protein: recombinant; tags: 6xHis-TEV (N-terminal); blunt"}
{"binder": "B1", "values": [{"measurement": "binding result", "value": "binds"}]}
